Consider 8 molecules from US20110091994A1, “Methods for Screening Compounds for Treating and/or Preventing an Hepatitis C Virus Infection” (priority 2008, published 2011).

The target in assay [1] is T1, HCV ORFs (Gal4-DB fusions) (Hepatitis C virus genotype 1b, UniProt Q9WMX2).
T1 construct: expressed in transfected cells; host or cells: Saccharomyces cerevisiae MAV203 (IMAP1) / AH109 (IMAP2)
The format is binding, HCV genotype 1b, isolate con1. The conditions noted are these: human protein as prey.
Protocol: (§1) HCV ORFs were transferred from pDONR223 into bait vector (pPC97) to be expressed as Gal4-DB fusions in yeast. Two different screening methods were used (IMAP1 and IMAP2). Both for IMAP1 and IMAP2 strategies and because bait constructs sometimes self-transactivate reporter genes, SD-L-H culture medium were supplemented with 3-aminotriazole (3-AT). Appropriate concentrations of this drug were determined by growing bait strains on SD-L-H medium supplemented with increasing concentrations of 3-AT. […] For IMAP1, bait vectors were introduced in MAV203 yeast strain and both human spleen and foetal brain AD-cDNA libraries (Invitrogen) were screened by transformation as described (7). All primary positive clones (selected on SD-W-L-H+3-AT) were tested by further phenotypic assay using two additional reporter genes: LacZ (X-Gal colorimetric assay) and URA3 (growth assay on 5-FOA supplemented medium). […] AD-cDNA were PCR-amplified and inserts were sequenced to identify interactors. IMAP2 screens were performed by yeast mating, using AH109 and Y187 yeast strains (Clontech (8)). Bait vectors were transformed into AH109 (bait strain) and human spleen and foetal brain AD-cDNA libraries (Invitrogen) were transformed into Y187 (prey strain). Single bait strains were mated with prey strains then diploids were plated on SD-W-L-H+3-AT medium. Positive clones were maintained onto this selective medium for 15 days to eliminate any contaminant AD-cDNA plasmid (9). AD-cDNAs were PCR amplified and inserts were sequenced.
(§2) We have developed a bioinformatic pipeline that assigns each IST to its native human genome transcript. […] Gal4 motif was searched (last 87 bases of GAL4-AD), sequences downstream of this motif were translated into peptides and aligned using BLASTP against the REFSEQ (http://www.ncbi.nlm.nih.gov/RefSeq/) human protein sequence database (release 04/2007). Low-confidence alignments (E value>10^−10, identity <80%) and premature STOP codon containing sequences were eliminated. Only in-frame proteins and high quality sequences were further considered

For assay [2], the system named is HCV ORFs (Gal4-DB fusions). Type of assay: binding, HCV genotype 1b, isolate con1. To be noted: human protein listed by gene symbol; the value names the HCV protein it interacts with.
Protocol: as §1, §2
Assay [3] deals with T2, HCV proteins (Hepatitis C virus genotype 1b, UniProt Q9WMX2).
T2 construct: expressed in transfected cells
In words: Validation by Y2H pairwise matrices.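 Also: yeast two-hybrid pairwise tests of interactions first found in Y2H screens of HCV bait proteins against human cDNA libraries.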 The format is binding.

Setting [4] is: validation of interaction with HCV protein NS3.
Where [5] appears, read: validation of interaction with HCV protein CORE.

Read-outs that look alike come from different tables or passages of the source.
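For IMAP Y2H IMAP1 (number of IST) in this document: yeast two-hybrid screens using HCV genotype 1b proteins fused to Gal4-DB as baits against prey cDNA libraries from human spleen and foetal brain, IMAP1 via transformation and IMAP2 via mating.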
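For Interaction with viral protein in this document: yeast two-hybrid screens using HCV genotype 1b proteins fused to Gal4-DB as baits against prey cDNA libraries from human spleen and foetal brain, IMAP1 via transformation and IMAP2 via mating.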

B1: ARHGEF6 (protein, UniProt Q15052 1-776, looked up)
Rho guanine nucleotide …: MNPEEQIVTWLISLGVLESPKKTICDPEEFLKSSLKNGVVLCKLINRLMPGSVEKFCLDPQTEADCINNINDFLKGCATLQVEIFDPDDLYSGVNFSKVLSTLLAVNKATEDQLSERPCGRSSSLSAANTSQTNPQGAVSSTVSGLQRQSKTVEMTENGSHQLIVKARFNFKQTNEDELSVCKGDIIYVTRVEEGGWWEGTLNGRTGWFPSNYVREIKSSERPLSPKAVKGFETAPLTKNYYTVVLQNILDTEKEYAKELQSLLVTYLRPLQSNNNLSTVEVTSLLGNFEEVCTFQQTLCQALEECSKFPENQHKVGGCLLSLMPHFKSMYLAYCANHPSAVNVLTQHSDELEQFMENQGASSPGILILTTNLSKPFMRLEKYVTLLQELERHMEDTHPDHQDILKAIVAFKTLMGQCQDLRKRKQLELQILSEPIQAWEGEDIKNLGNVIFMSQVMVQYGACEEKEERYLMLFSNVLIMLSASPRMSGFIYQGKIPIAGTVVTRLDEIEGNDCTFEITGNTVERIVVHCNNNQDFQEWLEQLNRLIRGPASCSSLSKTSSSSCSAHSSFSSTGQPRGPLEPPQIIKPWSLSCLRPAPPLRPSAALGYKERMSYILKESSKSPKTMKKFLHKRKTERKPSEEEYVIRKSTAALEEDAQILKVIEAYCTSANFQQGHGSSTRKDSIPQVLLPEEEKLIIEETRSNGQTIMEEKSLVDTVYALKDEVRELKQENKRMKQCLEEELKSRRDLEKLVRRLLKQTDECIRGESSSKTSILP
Take B1: in assay [1] (HCV protein NS3 as bait), the “IMAP Y2H IMAP1 (number of IST)” value is given as 1. For the same molecule, the “Interaction with viral protein” value in assay [2] is “NS3”. Further, the Y2H matrices result in assay [3] (setting [4]) is reported as “+”.

B2: C1orf94 (protein, UniProt Q6P1W5 1-598, looked up)
Uncharacterized protein …: MRGGGGCVLALGGQRGFQKERRRMASGNGLPSSSALVAKGPCALGPFPRYIWIHQDTPQDSLDKTCHEIWKRVQGLPEASQPWTSMEQLSVPVVGTLRGNELSFQEEALELSSGKDEISLLVEQEFLSLTKEHSILVEESSGELEVPGSSPEGTRELAPCILAPPLVAGSNERPRASIIVGDKLLKQKVAMPVISSRQDCDSATSTVTDILCAAEVKSSKGTEDRGRILGDSNLQVSKLLSQFPLKSTETSKVPDNKNVLDKTRVTKDFLQDNLFSGPGPKEPTGLSPFLLLPPRPPPARPDKLPELPAQKRQLPVFAKICSKPKADPAVERHHLMEWSPGTKEPKKGQGSLFLSQWPQSQKDACGEEGCCDAVGTASLTLPPKKPTCPAEKNLLYEFLGATKNPSGQPRLRNKVEVDGPELKFNAPVTVADKNNPKYTGNVFTPHFPTAMTSATLNQPLWLNLNYPPPPVFTNHSTFLQYQGLYPQQAARMPYQQALHPQLGCYSQQVMPYNPQQMGQQIFRSSYTPLLSYIPFVQPNYPYPQRTPPKMSANPRDPPLMAGDGPQYLFPQGYGFGSTSGGPLMHSPYFSSSGNGINF
Regarding B2, the “IMAP Y2H IMAP1 (number of IST)” value in assay [1] (HCV protein NS3 as bait) was 1. Besides, in assay [2], the “Interaction with viral protein” value was “NS3”. Moreover, the Y2H matrices entry in assay [3] (setting [4]) was “+”.

B3: ARS2 (protein, UniProt Q9BXP5 2-876, looked up)
Serrate RNA effector molecule …: GDSDDEYDRRRRDKFRRERSDYDRSRERDERRRGDDWNDREWDRGRERRSRGEYRDYDRNRRERFSPPRHELSPPQKRMRRDWDEHSSDPYHSGYEMPYAGGGGGPTYGPPQPWGHPDVHIMQHHVLPIQARLGSIAEIDLGVPPPVMKTFKEFLLSLDDSVDETEAVKRYNDYKLDFRRQQMQDFFLAHKDEEWFRSKYHPDEVGKRRQEARGALQNRLRVFLSLMETGWFDNLLLDIDKADAIVKMLDAAVIKMEGGTENDLRILEQEEEEEQAGKPGEPSKKEEGRAGAGLGDGERKTNDKDEKKEDGKQAENDSSNDDKTKKSEGDGDKEEKKEDSEKEAKKSSKKRNRKHSGDDSFDEGSVSESESESESGQAEEEKEEAEEALKEKEKPKEEEWEKPKDAAGLECKPRPLHKTCSLFMRNIAPNISRAEIISLCKRYPGFMRVALSEPQPERRFFRRGWVTFDRSVNIKEICWNLQNIRLRECELSPGVNRDLTRRVRNINGITQHKQIVRNDIKLAAKLIHTLDDRTQLWASEPGTPPLPTSLPSQNPILKNITDYLIEEVSAEEEELLGSSGGAPPEEPPKEGNPAEINVERDEKLIKVLDKLLLYLRIVHSLDYYNTCEYPNEDEMPNRCGIIHVRGPMPPNRISHGEVLEWQKTFEEKLTPLLSVRESLSEEEAQKMGRKDPEQEVEKFVTSNTQELGKDKWLCPLSGKKFKGPEFVRKHIFNKHAEKIEEVKKEVAFFNNFLTDAKRPALPEIKPAQPPGPAQILPPGLTPGLPYPHQTPQGLMPYGQPRPPILGYGAGAVRPAVPTGGPPYPHAPYGAGRGNYDAFRGQGGYPGKPRNRMVRGDPRAIVEYRDLDAPDDVDFF
With B3, in assay [1] (HCV protein NS3 as bait), the “IMAP Y2H IMAP1 (number of IST)” value came out at 4. For the same molecule, the “Interaction with viral protein” value in assay [2] is reported as “NS3”. Also, in assay [3] (setting [4]), the Y2H matrices result is “+”.

B4: BCAR1 (protein, UniProt P56945 1-870, looked up)
Breast cancer anti-estrogen …: MNHLNVLAKALYDNVAESPDELSFRKGDIMTVLEQDTQGLDGWWLCSLHGRQGIVPGNRLKILVGMYDKKPAGPGPGPPATPAQPQPGLHAPAPPASQYTPMLPNTYQPQPDSVYLVPTPSKAQQGLYQVPGPSPQFQSPPAKQTSTFSKQTPHHPFPSPATDLYQVPPGPGGPAQDIYQVPPSAGMGHDIYQVPPSMDTRSWEGTKPPAKVVVPTRVGQGYVYEAAQPEQDEYDIPRHLLAPGPQDIYDVPPVRGLLPSQYGQEVYDTPPMAVKGPNGRDPLLEVYDVPPSVEKGLPPSNHHAVYDVPPSVSKDVPDGPLLREETYDVPPAFAKAKPFDPARTPLVLAAPPPDSPPAEDVYDVPPPAPDLYDVPPGLRRPGPGTLYDVPRERVLPPEVADGGVVDSGVYAVPPPAEREAPAEGKRLSASSTGSTRSSQSASSLEVAGPGREPLELEVAVEALARLQQGVSATVAHLLDLAGSAGATGSWRSPSEPQEPLVQDLQAAVAAVQSAVHELLEFARSAVGNAAHTSDRALHAKLSRQLQKMEDVHQTLVAHGQALDAGRGGSGATLEDLDRLVACSRAVPEDAKQLASFLHGNASLLFRRTKATAPGPEGGGTLHPNPTDKTSSIQSRPLPSPPKFTSQDSPDGQYENSEGGWMEDYDYVHLQGKEEFEKTQKELLEKGSITRQGKSQLELQQLKQFERLEQEVSRPIDHDLANWTPAQPLAPGRTGGLGPSDRQLLLFYLEQCEANLTTLTNAVDAFFTAVATNQPPKIFVAHSKFVILSAHKLVFIGDTLSRQAKAADVRSQVTHYSNLLCDLLRGIVATTKAAALQYPSPSAAQDMVERVKELGHSTQQFRRVLGQLAAA
As to B4, the “IMAP Y2H IMAP1 (number of IST)” value in assay [1] (HCV protein CORE as bait) worked out at 1. Further, the “Interaction with viral protein” value in assay [2] is “CORE”. Also, the Y2H matrices entry in assay [3] (setting [5]) is reported as “+”.

B5: BCAN (protein, UniProt Q96GW7 23-911, looked up)
Brevican core protein: DVLEGDSSEDRAFRVRIAGDAPLQGVLGGALTIPCHVHYLRPPPSRRAVLGSPRVKWTFLSRGREAEVLVARGVRVKVNEAYRFRVALPAYPASLTDVSLALSELRPNDSGIYRCEVQHGIDDSSDAVEVKVKGVVFLYREGSARYAFSFSGAQEACARIGAHIATPEQLYAAYLGGYEQCDAGWLSDQTVRYPIQTPREACYGDMDGFPGVRNYGVVDPDDLYDVYCYAEDLNGELFLGDPPEKLTLEEARAYCQERGAEIATTGQLYAAWDGGLDHCSPGWLADGSVRYPIVTPSQRCGGGLPGVKTLFLFPNQTGFPNKHSRFNVYCFRDSAQPSAIPEASNPASNPASDGLEAIVTVTETLEELQLPQEATESESRGAIYSIPIMEDGGGGSSTPEDPAEAPRTLLEFETQSMVPPTGFSEEEGKALEEEEKYEDEEEKEEEEEEEEVEDEALWAWPSELSSPGPEASLPTEPAAQEESLSQAPARAVLQPGASPLPDGESEASRPPRVHGPPTETLPTPRERNLASPSPSTLVEAREVGEATGGPELSGVPRGESEETGSSEGAPSLLPATRAPEGTRELEAPSEDNSGRTAPAGTSVQAQPVLPTDSASRGGVAVVPASGDCVPSPCHNGGTCLEEEEGVRCLCLPGYGGDLCDVGLRFCNPGWDAFQGACYKHFSTRRSWEEAETQCRMYGAHLASISTPEEQDFINNRYREYQWIGLNDRTIEGDFLWSDGVPLLYENWNPGQPDSYFLSGENCVVMVWHDQGQWSDVPCNYHLSYTCKMGLVSCGPPPELPLAQVFGRPRLRYEVDTVLRYRCREGLAQRNLPLIRCQENGRWEAPQISCVPRRPARALHPEEDPEGRQGRLLGRWKALLIPPSSPMPGP
For the molecule B5, the “IMAP Y2H IMAP1 (number of IST)” value in assay [1] (HCV protein NS3 as bait) was 2. Also, in assay [2], the “Interaction with viral protein” value is reported as “NS3”. Further, in assay [3] (setting [4]), the Y2H matrices entry is “+”.

B6: C12orf41 (protein, UniProt Q9H9L4 1-492, looked up)
KAT8 regulatory NSL complex …: MNRIRIHVLPTNRGRITPVPRSQEPLSCAFTHRPCSHPRLEGQEFCIKHILEDKNAPFKQCSYISTKNGKRCPNAAPKPEKKDGVSFCAEHVRRNALALHAQMKKTNPGPVGETLLCQLSSYAKTELGSQTPESSRSEASRILDEDSWSDGEQEPITVDQTWRGDPDSEADSIDSDQEDPLKHAGVYTAEEVALIMREKLIRLQSLYIDQFKRLQHLLKEKKRRYLHNRKVEHEALGSSLLTGPEGLLAKERENLKRLKCLRRYRQRYGVEALLHRQLKERRMLATDGAAQQAHTTRSSQRCLAFVDDVRCSNQSLPMTRHCLTHICQDTNQVLFKCCQGSEEVPCNKPVPVSLSEDPCCPLHFQLPPQMYKPEQVLSVPDDLEAGPMDLYLSAAELQPTESLPLEFSDDLDVVGDGMQCPPSPLLFDPSLTLEDHLVKEIAEDPVDILGQMQMAGDGCRSQGSRNSEKASAPLSQSGLATANGKPEPTSIS
In the case of B6, the “IMAP Y2H IMAP1 (number of IST)” value in assay [1] (HCV protein NS3 as bait) is recorded as 1. Further, the “Interaction with viral protein” value in assay [2] was “NS3”. In addition, the Y2H matrices result in assay [3] (setting [4]) is “+”.

B7: CD68 (protein, UniProt P34810 22-354, looked up)
Macrosialin: NDCPHKKSATLLPSFTVTPTVTESTGTTSHRTTKSHKTTTHRTTTTGTTSHGPTTATHNPTTTSHGNVTVHPTSNSTATSQGPSTATHSPATTSHGNATVHPTSNSTATSPGFTSSAHPEPPPPSPSPSPTSKETIGDYTWTNGSQPCVHLQAQIQIRVMYTTQGGGEAWGISVLNPNKTKVQGSCEGAHPHLLLSFPYGHLSFGFMQDLQQKVVYLSYMAVEYNVSFPHAAQWTFSAQNASLRDLQAPLGQSFSCSNSSIILSPAVHLDLLSLRLQAAQLPHTGVFGQSFSCPSDRSILLPLIIGLILLGLLALVLIAFCIIRRRPSAYQAL
With B7, the “IMAP Y2H IMAP1 (number of IST)” value in assay [1] (HCV protein CORE as bait) was 1. In addition, in assay [2], the “Interaction with viral protein” value was “CORE”. In assay [3] (setting [5]), the Y2H matrices entry is “+”.

B8: ARFIP2 (protein, UniProt P53365 1-341, looked up)
Arfaptin-2: MTDGILGKAATMEIPIHGNGEARQLPEDDGLEQDLQQVMVSGPNLNETSIVSGGYGGSGDGLIPTGSGRHPSHSTTPSGPGDEVARGIAGEKFDIVKKWGINTYKCTKQLLSERFGRGSRTVDLELELQIELLRETKRKYESVLQLGRALTAHLYSLLQTQHALGDAFADLSQKSPELQEEFGYNAETQKLLCKNGETLLGAVNFFVSSINTLVTKTMEDTLMTVKQYEAARLEYDAYRTDLEELSLGPRDAGTRGRLESAQATFQAHRDKYEKLRGDVAIKLKFLEENKIKVMHKQLLLFHNAVSAYFAGNQKQLEQTLQQFNIKLRPPGAEKPSWLEEQ
In the case of B8, the “IMAP Y2H IMAP1 (number of IST)” value in assay [1] (HCV protein NS3 as bait) came to 1. Besides, in assay [2], the “Interaction with viral protein” value is “NS3”. For the same molecule, the Y2H matrices result in assay [3] (setting [4]) is listed as “+”.
